Laboratory results from US20190127473A1 (Dana-Farber, published 2019).

Legend:
human galectin-1 (Gal1) = biological target: T1, human galectin-1 (Gal1) (human, UniProt P09382 2-135); test: SPR (BIAcore 3000, 25 C, HBS-EP), 8F4 captured by anti-mouse antibody on CM-5 chip, galectin as analyte, 1:1 Langmuir fit; rhGal1 as analyte; ~250 RU of 8F4 captured
T1 construct: Used as recombinant protein bought from R&D Systems (SPR) and as endogenous protein in L428 cell lysate (Western blot); also called hGal1; rhGal1
T1 sequence (P09382 2-135 limits assumed): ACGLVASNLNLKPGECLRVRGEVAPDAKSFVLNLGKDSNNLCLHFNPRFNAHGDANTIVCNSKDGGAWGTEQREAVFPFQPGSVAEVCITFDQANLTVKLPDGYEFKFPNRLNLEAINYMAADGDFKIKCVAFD
Experimental: (§1) Surface Plasmon Resonance (SPR) analyses (also called Biomolecular Interaction Analysis, BlAcore) were also conducted in order to further define the biophysical properties (e.g., kₒₙ, koff, koffkₒₙ (KD) of Gal1's interaction with the 8F4 mAb. SPR experiments were performed at 25° C. in the standard BlAcore running buffer HBS-EP on a BlAcore 3000 Instrument (BlAcore). In brief, anti-mouse antibody was first captured on the CM-5 sensor chip (GE HealthCare). Afterwards, approximately 250 response units (RU) of the 8F4 anti-Gal1 mAb were immobilized (with exception of ˜350 RU for rmGal1 assay) and followed by various dilutions of recombinant galectin (human galetin-1, 2, 3, 4, 7, 8, 9 or murine galectin-1 (mGal1), from R&D Systems) to assess the binding of galectin to 8F4. All data are shown after subtraction from a channel loaded with buffer alone. Data analysis to obtain the binding curves shown and equilibrium dissociation constant (KD) was performed using BlAevaluation 3.1 (BlAcore) by globally fitting the data to a simple 1:1 (Langmuir) binding model.

mouse galectin-1 (Gal1) = biological target: T2, mouse galectin-1 (Gal1) (mouse, UniProt P16045 2-135); test: SPR (BIAcore 3000, 25 C, HBS-EP), 8F4 captured by anti-mouse antibody on CM-5 chip, galectin as analyte, 1:1 Langmuir fit; rmGal1 as analyte; ~350 RU of 8F4 captured
T2 construct: Used as recombinant protein bought from R&D Systems (SPR) and as endogenous protein in B16-F10 cell lysate (Western blot); also called mGal1; rmGal1
T2 sequence (P16045 2-135 limits assumed): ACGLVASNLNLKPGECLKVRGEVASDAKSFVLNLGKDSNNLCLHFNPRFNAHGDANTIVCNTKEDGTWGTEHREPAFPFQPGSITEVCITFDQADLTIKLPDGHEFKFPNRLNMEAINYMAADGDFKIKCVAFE
Experimental: as §1

[1] = biological target: T3, recombinant human galectin-3 (human, UniProt P17931 2-250); test: SPR (BIAcore 3000), 8F4 captured by anti-mouse antibody on CM-5 chip, galectin as analyte
T3 construct: Bought; also called Gal3; Ga13 (so in the source)
T3 sequence (P17931 2-250 limits assumed): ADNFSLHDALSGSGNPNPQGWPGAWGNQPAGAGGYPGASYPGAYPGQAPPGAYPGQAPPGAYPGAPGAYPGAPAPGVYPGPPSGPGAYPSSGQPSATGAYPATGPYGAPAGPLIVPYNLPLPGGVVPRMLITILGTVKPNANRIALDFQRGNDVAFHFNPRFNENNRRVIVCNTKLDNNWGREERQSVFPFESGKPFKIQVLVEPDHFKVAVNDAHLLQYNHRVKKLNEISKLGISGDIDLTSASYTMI
Experimental: as §1

[2] = biological target: T4, recombinant human galectin-9 (human, UniProt O00182-2 2-323, limits assumed); test: as above
T4 construct: Bought; also called Gal9; Ga19 (so in the source)
T4 sequence (O00182 other isoform, or with tags, fused parts or gaps limits assumed): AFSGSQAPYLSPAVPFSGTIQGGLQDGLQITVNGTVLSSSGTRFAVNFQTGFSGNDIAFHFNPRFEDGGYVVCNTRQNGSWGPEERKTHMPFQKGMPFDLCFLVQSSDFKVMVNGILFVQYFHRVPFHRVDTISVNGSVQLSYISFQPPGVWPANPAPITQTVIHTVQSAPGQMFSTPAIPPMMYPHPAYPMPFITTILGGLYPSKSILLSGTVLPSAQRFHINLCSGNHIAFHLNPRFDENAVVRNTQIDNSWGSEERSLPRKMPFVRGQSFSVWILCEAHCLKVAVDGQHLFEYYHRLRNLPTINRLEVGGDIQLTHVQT
Experimental: as §1

[3] = biological target: T5, recombinant human galectin-7 (human, UniProt P47929 2-136, limits assumed); test: as above
T5 construct: Bought; also called Gal7; Ga17 (so in the source)
T5 sequence (P47929 2-136 limits assumed): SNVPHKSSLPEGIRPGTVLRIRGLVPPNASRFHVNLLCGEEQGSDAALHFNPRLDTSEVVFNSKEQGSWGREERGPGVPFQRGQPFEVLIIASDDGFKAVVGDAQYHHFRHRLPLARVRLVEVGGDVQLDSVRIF
Experimental: as §1

[4] = biological target: T6, recombinant human galectin-2 (human, UniProt P05162 2-132, limits assumed); test: as above
T6 construct: Bought; also called Gal2; Ga12 (so in the source)
T6 sequence (looked up): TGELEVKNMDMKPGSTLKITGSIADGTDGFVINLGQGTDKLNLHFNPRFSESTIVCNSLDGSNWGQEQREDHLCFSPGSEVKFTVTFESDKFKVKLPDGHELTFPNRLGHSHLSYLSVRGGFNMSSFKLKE
Experimental: as §1

[5] = biological target: T7, recombinant human galectin-4 (human, UniProt P56470 2-323, limits assumed); test: as above
T7 construct: Bought; also called Gal4; Ga14 (so in the source)
T7 sequence (looked up): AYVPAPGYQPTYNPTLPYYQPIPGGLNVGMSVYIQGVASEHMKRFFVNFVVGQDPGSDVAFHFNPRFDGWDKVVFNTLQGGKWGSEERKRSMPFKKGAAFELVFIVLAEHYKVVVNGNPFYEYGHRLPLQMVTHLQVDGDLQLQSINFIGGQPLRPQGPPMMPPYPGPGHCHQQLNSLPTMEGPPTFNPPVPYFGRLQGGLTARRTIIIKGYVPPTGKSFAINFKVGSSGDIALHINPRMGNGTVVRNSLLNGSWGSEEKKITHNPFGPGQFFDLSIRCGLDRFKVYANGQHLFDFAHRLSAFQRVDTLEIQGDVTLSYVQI
Experimental: as §1

[6] = biological target: T8, recombinant human galectin-8 (human, UniProt O00214 1-317, limits assumed); test: as above
T8 construct: Bought; also called Gal8; Ga18 (so in the source)
T8 sequence (looked up): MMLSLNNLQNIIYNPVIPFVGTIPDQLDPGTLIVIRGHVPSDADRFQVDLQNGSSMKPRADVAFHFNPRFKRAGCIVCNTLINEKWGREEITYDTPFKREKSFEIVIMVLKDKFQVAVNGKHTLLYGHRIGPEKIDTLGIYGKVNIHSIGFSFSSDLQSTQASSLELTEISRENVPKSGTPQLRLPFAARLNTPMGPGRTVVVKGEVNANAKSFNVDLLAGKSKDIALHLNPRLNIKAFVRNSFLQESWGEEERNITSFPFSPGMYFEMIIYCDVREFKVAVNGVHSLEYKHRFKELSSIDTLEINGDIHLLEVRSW
Experimental: as §1

B1: 8F4 anti-Gal1 monoclonal antibody (antibody, V domains shown)
VH: EVQLQQSVAEFVRPGASVRLSCTASGFNIKNTYIHWVRQRPEQGLEWIGKIDPANGNTKYVPEFQGKATMTADTSSNTVYLHLSSLTSEDTAIYYCVDGYYGWYFAVWGTGTTVTVSS
VL: QAVVTQESALTTSPGETVTLTCRSSTGAVTTSNYANWVQEKPDHLFTGLIGATNNRAPGVPARFSGSLIGDKAVLTITGAQTEDEAIYFCALWYRNHFIFGSGTKVTVL
notes: Hybridoma monoclonal antibody; The light chain is lambda; Hybridoma 8F4.F8.G7 is deposited as ATCC PTA-10535; also called 8F4 mAb; 8F4.F8.G7
For B1, the Kd (human galectin-1 (Gal1)) was 13 nM, the Kd (mouse galectin-1 (Gal1)) was 38.5 nM and the binding result [1] was “no binding”. B1: no binding [2]; no binding [3]; no binding [4]. B1: no binding [5]; no binding [6].
